# Measurements: article PMC2694229
# Test system: PCBP2
# Assay: competition EMSA
substance,measurement,value
poliovirus stem-loop IV RNA,Kd,15 nM
